The nature of this data set: physchem. The procedure:
Stability of each substance was evaluated, while being maintained at 25° C. and 50° C. for 30 days, by observing the change of UV (254 nm) absorbance.

Where [1] appears, read: buffer, Remaining test substance (%).

Consider three compounds from patent US8829044B2, “Stabilized vitamin C derivatives having a peptide molecule, preparation method thereof, and composition containing the same” (Peotron Co. Ltd., priority 2006, dated 2014).

Peptide text beside a SMILES is read from it. * marks the point of attachment. X1 = O=C(CCC(=O)*)O[C@@H](CO)[C@H]1OC(=O)C(OP(=O)(O)O)=C1O; X2 = O=C(CCC(=O)*)O[C@@H](CO)[C@H]1OC(=O)C(O)=C1O

The fraction remaining is the share of the starting amount still present when the sample was taken. High values mean less turnover, low ones more turnover.

Under setting [1], `C[C@@H](O)[C@H](NC(=O)[C@H](CCCCN)NC(=O)CCC(=O)O[C@@H](CO)[C@H]1OC(=O)C(OP(=O)(O)O)=C1O)C(=O)N[C@H](C(=O)N[C@@H](CCCCN)C(=O)N[C@@H](CO)C(=O)O)[C@@H](C)O` [Ic-1, 2-phospho-5-(succinyl-lysine-threonine-threonine-lysine-serine) ascorbic acid] (X1-KTTKS-OH) came in with a fraction remaining at 24 h, 10 μg/mL of 100%; a share remaining at 48 h, 10 μg/mL of 100%; a share remaining at 72 h, 10 μg/mL of 100%; an amount remaining at 120 h, 10 μg/mL of 100%. Under setting [1], this compound had a fraction remaining at 240 h, 10 μg/mL of 100%.
As to `C[C@@H](O)[C@H](NC(=O)[C@H](CCCCN)NC(=O)CCC(=O)O[C@@H](CO)[C@H]1OC(=O)C(O)=C1O)C(=O)N[C@H](C(=O)N[C@@H](CCCCN)C(=O)N[C@@H](CO)C(=O)O)[C@@H](C)O` [succinoyl ascorbyl pentapeptide] (X2-KTTKS-OH), the fraction remaining at 24 h, 10 μg/mL runs as follows: (buffer, Remaining test substance (%), day 1, 25° C., 10 μg/mL in purified water) 60%; (buffer, Remaining test substance (%), day 1, 50° C., 10 μg/mL in purified water) 50%. Further, the share remaining at 48 h, 10 μg/mL stood at 20% (buffer, Remaining test substance (%), day 2, 25° C., 10 μg/mL in purified water) and 10% (buffer, Remaining test substance (%), day 2, 50° C., 10 μg/mL in purified water). For the same compound, the fraction remaining at 72 h, 10 μg/mL is, setting by setting: (buffer, Remaining test substance (%), day 3, 25° C., 10 μg/mL in purified water) 10%; (buffer, Remaining test substance (%), day 3, 50° C., 10 μg/mL in purified water) 0%. Also, the fraction remaining at 120 h, 10 μg/mL (buffer, Remaining test substance (%), day 5, 50° C., 10 μg/mL in purified water) came to 0%. For the same compound, where the note is “buffer, Remaining test substance (%), day 10, 50° C., 10 μg/mL in purified water”, the amount remaining at 240 h, 10 μg/mL was 0%. Also, where the note is “buffer, Remaining test substance (%), day 20, 50° C., 10 μg/mL in purified water”, the fraction remaining at 480 h, 10 μg/mL is 0%. This compound displayed a share remaining at 720 h, 10 μg/mL (buffer, Remaining test substance (%), day 30, 50° C., 10 μg/mL in purified water) of 0%. Also, the “Remaining test substance (%)” value came to 100% (day 0, 25° C., 10 μg/mL in purified water); 100% (day 0, 50° C., 10 μg/mL in purified water); 0% (day 5, 25° C., 10 μg/mL in purified water); 0% (day 10, 25° C., 10 μg/mL in purified water); 0% (day 20, 25° C., 10 μg/mL in purified water); 0% (day 30, 25° C., 10 μg/mL in purified water).
Regarding `O=C1O[C@H]([C@@H](O)CO)C(O)=C1O` [Vitamin C, ascorbic acid], the “Remaining test substance (%)” value worked out at 100% (buffer, 0 day, 10 μg/mL); 0% (buffer, 2 day, 10 μg/mL); 0% (buffer, 3 day, 10 μg/mL); 0% (buffer, 5 day, 10 μg/mL); 0% (buffer, 10 day, 10 μg/mL); 0% (buffer, 20 day, 10 μg/mL). The “Remaining test substance (%)” value (buffer, 30 day, 10 μg/mL) turned out to be 0%.
